From publication PMC4526114, “Structure and vascular function of MEKK3–cerebral cavernous malformations 2 complex” (Nature Communications, 2015) come the findings set out here.

What all share (details): both partners purified
The target of assay [1] is T1, MEKK3^NPB1 (human, UniProt Q99759 1-124).
T1 construct: MEKK3 (MAP3K3), human, residues 1–124 (N-terminal helix and PB1 domain); also called N terminus of MEKK3; 6 × His–MEKK3^NPB1 (before cleavage); not shown: His6, N-terminal, cleaved
T1 sequence: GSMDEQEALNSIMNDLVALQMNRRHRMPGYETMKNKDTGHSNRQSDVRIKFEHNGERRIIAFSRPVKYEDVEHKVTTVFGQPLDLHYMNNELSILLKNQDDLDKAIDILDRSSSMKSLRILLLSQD
Kind of assay: SEC-MALS; CCM2^HHD:MEKK3^NPB1 complex used for crystallization, 100 μl of 1.5 mg ml^-1 in 150 mM NaCl, 20 mM Tris pH 8.0, 0.02% sodium azide.

Assay [2] addresses T1, MEKK3^NPB1. Kind of assay: ITC; CCM2^HHD injected into MEKK3^NPB1 in 20 2.5-μl injections at 25 °C; 150 mM NaCl, 50 mM HEPES pH 7.5; nano-ITC; 'observed Kd'.
The target of the next assay is T2, CCM2^FL (human, UniProt Q9BSQ5 1-438).
T2 construct: CCM2, human, residues 1–438; also called full-length CCM2; CCM2^FL: 1–438; source: purified; not shown: His tag, N-terminal, cleaved
T2 sequence (Q9BSQ5 other isoform, or with tags, fused parts or gaps): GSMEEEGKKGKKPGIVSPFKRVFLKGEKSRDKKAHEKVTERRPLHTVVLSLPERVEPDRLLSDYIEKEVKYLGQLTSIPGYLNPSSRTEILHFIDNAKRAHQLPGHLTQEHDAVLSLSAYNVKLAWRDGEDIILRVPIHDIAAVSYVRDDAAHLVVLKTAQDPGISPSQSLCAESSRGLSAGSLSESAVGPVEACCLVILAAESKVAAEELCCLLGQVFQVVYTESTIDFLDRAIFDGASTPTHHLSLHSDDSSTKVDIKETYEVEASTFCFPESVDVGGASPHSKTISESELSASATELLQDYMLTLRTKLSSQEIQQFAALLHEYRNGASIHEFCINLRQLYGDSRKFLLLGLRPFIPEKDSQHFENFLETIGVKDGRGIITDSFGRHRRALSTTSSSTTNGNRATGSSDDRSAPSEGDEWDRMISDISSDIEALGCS
The assay is described as follows: pull-down; GST fusions of MEKK3 immobilised on glutathione Sepharose-4B beads; 5 μl bead slurry and 60 μg purified CCM2 in 500 μl, 4 °C, 2 h; 150 mM NaCl, 50 mM Tris pH 7.5, 0.1% Triton-X100; Coomassie-stained SDS–PAGE of washed beads.

B1: CCM2^HHD (domain or fragment, human)
chain: GSSKTISESELSASATELLQDYMLTLRTKLSSQEIQQFAALLHEYRNGASIHEFCINLRQLYGDSRKFLLLGLRPFIPEKDSQHFENFLETIGVKDGRG
notes: CCM2, human, residues 283–379 (harmonin homology domain); also called CCM2 harmonin homology domain; CCM2^HHD: 283–379; source: E. coli Rosetta (DE3), purified (HisTrap, TEV cleavage, size exclusion); not shown: His6, N-terminal, cleaved
For the molecule B1, the “stoichiometry N” value in the assay with MEKK3^NPB1 [1] stood at 1. In addition, in the assay with MEKK3^NPB1 [2], the Kd came out at 1.4 ± 0.4 µM.

B2: GST–MEKK3^NPB1 (domain or fragment, human, UniProt Q99759 1-124, looked up)
chain: MDEQEALNSIMNDLVALQMNRRHRMPGYETMKNKDTGHSNRQSDVRIKFEHNGERRIIAFSRPVKYEDVEHKVTTVFGQPLDLHYMNNELSILLKNQDDLDKAIDILDRSSSMKSLRILLLSQD
notes: MEKK3 (MAP3K3), human, residues 1–124 (N-terminal helix and PB1 domain); GST-pCDF vector; also called GST–MEKK3^NPB1: 1–124
Regarding B2, in the assay with CCM2^FL, the binding result was “binds”.
